From US11813311B2, “Treatment and prevention of metabolic diseases” (Singapore Health Services PTE LTD., priority 2019, dated 2023)

How the values were obtained:
[1] = Long-term high dose preclinical toxicology of X209 and X203; format: in vivo, mouse; conditions: 10 mg/kg ×2/week, 5 months
Protocol: FIGS. 19A to 19J. Anti-IL-11 therapies inhibit HSC-to-myofibroblasts transformation in an ERK dependent manner and have a favourable metabolic safety profile. (A) Dose-response curve and IC50 value of X203 and X209 and ([…] to 4 μg/ml; 4-fold dilution) in inhibiting MMP2 secretion by TGFβ1-stimulated HSCs. (B) ELISA of IL-11 secretion from HSCs stimulated with various NASH factors (n≥5/group). (C) Representative fluorescence images and quantification of ACTA2^+ve cells from HSCs treated with TGFβ1 and other NASH factors in the presence of IgG, X203, or X209 (scale bars, 100 μm and dotted line represents the median value of baseline). (D) Effects of X203 and X209 on PDGF- or CCL2-induced HSC invasion. (E) Western blots of p-ERK and ERK in HSC lysates stimulated IL-11 (upper panel) or with various NASH factors in the presence of IgG or X209 (bottom panel). (F) Representative fluorescence images and quantification of ACTA2^+ve cells in HSCs treated with IL-11 and important NASH factors in the presence of ERK/MEK inhibitors U0126 or PD98059 (scale bars, 100 μm and dotted line represents the median value of baseline). (A-F) TGFβ1 (5 ng/ml), IL-11 (5 ng/ml), PDGF (20 ng/ml), AngII (100 nM), bFGF (10 ng/ml), CM (5 ng/ml), H2O2 (0.2 mM), IgG, X203 and X209 (2 μg/ml), U0126 or PD98059 (10 μM); (A,C,E-F) 24 h; (B,D) 48 h. (G) Peripheral platelet counts, (H) serum ALT levels, (I), serum triglycerides levels, and (J) serum cholesterol levels from mice injected biweekly with 10 mg/kg of X203 and X209 for 5 months (n≥5/group). (B,D) Data are shown as mean±s.d; (C,F,G-J) data are shown as box-and-whisker with median (middle line), 25th-75th percentiles (box) and min-max percentiles (whiskers). (B,D,G-J) Two-tailed Dunnett's test; (C, F) two-tailed, Tukey-corrected Student's t-test. FC: fold change.
The published literature on IL-11 in the liver is limited but injection of high dose recombinant human IL-11 into rodents has been associated with protective effects^13,14 and there is confusion as to a role for IL-11 in platelets biology^25. To exclude safety issues, the inventors performed long-term (5 months) high dose (10 mg/kg×2/week) preclinical toxicology studies of X209 and X203 and observed no effect on serum ALT levels or platelets (FIG. 19G-19H). Consistent with the data in the Il11ra^−/− mice, anti-IL-11 therapies lowered, or trended towards lowering, serum lipid levels during this treatment period (FIGS. 19I-19J).

[2] = system: mice with folate-induced kidney injury; test: Weight loss after folate-induced acute kidney injury; format: in vivo, mouse
Protocol: Kidney injury was induced by IP injection of folic acid (180 mg/kg) in vehicle (0.3M NaHCO3) to 10-week old male mice; control mice were administered vehicle alone. Animals were sacrificed 28 days post-injection. Mice were intraperitoneally injected every 3 days with 20 mg/kg of anti-IL-11 antibody, anti-IL-11 RA antibody or identical concentration of IgG isotype control starting from 1 hour before folic acid administration until the mice were sacrificed.
In a second experiment kidney injury was induced as before by IP injection of folic acid. Mice were only treated with anti-IL-11 antibody or IgG control from 21 days after kidney injury. Animal weight was assessed before and after antibody treatment.

[3] = Blood pharmacokinetics and biodistribution of 125I-X209; format: in vivo, mouse
Protocol: C57BL/6J mice (10-12-weeks old) were retro-orbitally injected (left eye) with 100 μl of freshly radiolabeled ^125I-X209 (5 μCi, 2.5 μg) in PBS. Mice were anesthetized with 2% isoflurane and blood were collected at several time points (2, 5, 10, 15, 30 m, 1, 2, 4, 6, 8 h, 1, 2, 3, 7, 14 and 21 days) post injection via submandibular bleeding. For biodistribution studies, blood was collected via cardiac puncture and tissues were harvested at the following time points: 1, 4 h, 1, 3, 7, 14, 21 days post injection. The radioactivity contents were measured using a gamma counter (2480 Wizard2, Perkin Elmer) with decay-corrections (100× dilution of 100 μl dose). The measured radioactivity was normalized to % injected dose/g tissue.

PSCs = test: Pancreatic stellate cell (PSC) activation in vitro; format: cell-based; conditions: 24 hours
Protocol: FIGS. 48A and 48B. Box plots and images showing activation of pancreatic stellate cells (PSCs) to a αSMA-positive, collagen-expressing fibrogenic phenotype. (A) Quantification of high-content imaging assays for the percentage of ACTA2-positive cells and collagen I intensity/area following in vitro stimulation of PSCs for 24 hours with the indicated factors, in the presence or absence of neutralising anti-IL-11 RA antibody or IgG isotype control antibody. (B) Representative images for high-content imaging analysis of collagen I intensity/area following in vitro stimulation of PSCs for 24 hours with the indicated factors, in the presence of neutralising anti-IL-11 RA antibody or IgG isotype control antibody.

[4] = 20 mg/kg every 3 days from 1 hour before folic acid

Row | Molecule | platelets [1] | serum ALT levels [1] | body weight [2, 4] | body weight ([2]; treated from 21 days after kidney injury) | liver uptake ([3]; 125I-X209, mice) | in vivo half-life ([3]; 125I-X209, retro-orbital injection, mice) | PSC activation irrespective of the stimulus (TGFβ1, IL-11, bFGF, CTGF, PDGF or ET-1) (PSCs)
1 | X203: mouse anti-mouse IL-11 IgG (IgG1κ), neutralising; VH SEQ ID NO:22, VL SEQ ID NO:23 (antibody, V domains shown, Enx203 VH; Enx203 VL) VH: EVQLQQSGPELVKPGASVKIPCKASGYTFTDYNMDWVKQSHGKSLEWIGDINPHNGGPIYNQKFTGKATLTVDKSSSTAYMELRSLTSEDTAVYYCARGELGHWYFDVWGTGTTVTVSS VL: DIVLTQSPASLAVSLGQRATISCRASKSVSTSGYSYIHWYQQKPGQPPKLLIYLASNLDSGVPARFSGSGSGTDFTLNIHPVEEEDAATYYCQHSRDLPPTFGGGTKLEIK | no effect | no effect | returned to normal, or near normal, weight by 3 weeks later | started to regain weight upon initiation of treatment |  |  | 
2 | X209: mouse anti-mouse IL-11Rα IgG (IgG1κ), neutralising; VH SEQ ID NO:24, VL SEQ ID NO:25 (antibody, V domains shown, Enx209 VH; Enx209 VL) VH: QVQLQQPGAELVRPGSSVKLSCKASGYTFTNYWMHWLKQRPVQGLEWIGNIGPSDSKTHYNQKFKDKATLTVDKSSSTAYMQLNSLTSEDSAVYYCARGDYVLFTYWGQGTLVTVSA VL: DIVLTQSPATLSLSPGERATLSCRASQSISNNLHWYQQKSHEAPRLLIKYASQSISGIPARFSGSGSGTDFTLSFSSLETEDFAVYFCQQSYSWPLTFGQGTKLEIK | no effect | no effect | returned to normal, or near normal, weight by 3 weeks later |  | good liver uptake | approximately 18 days | inhibited
